US20120121533, “NUCLEIC ACID LIGANDS TO LL37” (BIOTEX, INC., published 2012)

Biological target: T1, LL37 (human cathelicidin peptide LL-37) (Homo sapiens, UniProt P49913 P49913:134-170)
T1 chain: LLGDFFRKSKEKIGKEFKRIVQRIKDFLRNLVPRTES
Assay: SPR; biotinylated aptamer immobilised, increasing LL37 added; nonsense DNA on reference channel
Details: label: biotin (immobilised on neutravidin SPR chip)
Procedure: Aptamers were immobilized to the test channel of a neutravidin-coated SPR chip via standard biotin modification. A nonsense DNA was immobilized on the reference channel to identically match the electrostatic conditions of each channel, and then increasing concentrations of target protein LL37 were added such that no regeneration steps are required. The differential response to each dose was extracted and fit to a binding isotherm model to accurately determine Kd.

With ACTGGGTCTCACCATCGAAAATCGAAATGACTAAAAGGCC (ssDNA) [SEQ7 (Apta#222)] as the binder, how does the Kd read?
Its Kd is 118 nM.
